Results reported in patent publication US20020143164.

How the values were obtained:
[1] = target: Endogenous Ras of HEK-293T cells

Chain of GST-Ras [GST: P08515] (P08515 whole entry, looked up): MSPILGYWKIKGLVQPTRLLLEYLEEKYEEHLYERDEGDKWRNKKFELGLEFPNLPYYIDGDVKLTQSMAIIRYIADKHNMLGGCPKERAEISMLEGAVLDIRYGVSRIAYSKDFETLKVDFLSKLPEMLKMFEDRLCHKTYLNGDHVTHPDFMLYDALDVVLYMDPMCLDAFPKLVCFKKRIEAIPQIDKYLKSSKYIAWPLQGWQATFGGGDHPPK

Row | Protein | active Ras (Ras-GTP) precipitated with GST-Raf1-RBD from HEK-293T lysates [1] | fold Ras activation in vitro (bound 32P-GTP, 30 min, against Ras without GRFs set to 1) (GST-Ras [GST: P08515]) | Ras activation in vitro (GEF assay) (GST-Ras [GST: P08515])
1 | Flag-tagged full-length GRF4 (protein) MKPLAIPANHGVMGQQEKHSLPADFTKLHLTDSLHPQVTHVSSSHSGCSITSDSGSSSLSDIYQATESEAGDMDLSGLPETAVDSEDDDDEEDIERASDPLMSRDIVRDCLEKDPIDRTDDDIEQLLEFMHQLPAFANMTMSVRRELCAVMVFAVVERAGTIVLNDGEELDSWSVILNGSVEVTYPDGKAEILCMGNSFGVSPTMDKEYMKGVMRTKVDDCQFVCIAQQDYCRILNQVEKNMQKVEEEGEIVMVKEHRELDRTGTRKGHIVIKGTSERLTMHLVEEHSVVDPTFIEDFLLTYRTFLSSPMEVGKKLLEWFNDPSLRDKVTRVVLLWVNNHFNDFEGDPAMTRFLEEFENNLEREKMGGHLRLLNIACAAKAKRRLMTLTKPSREAPLPFILLGGSEKGFGIFVDSVDSGSKATEAGLKRGDQILEVNGQNFENIQLSKAMEILRNNTHLSITVKTNLFVFKELLTRLSEEKRNGAPHLPKIGDIKKASRYSIPDLAVDVEQVIGLEKVNKKSKANTVGGRNKLKKILDKTRISILPQKPYNDIGIGQSQDDSIVGLRQTKHIPTALPVSGTLSSSNPDLLQSHHRILDFSATPDLPDQVLRVFKADQQSRYIMISKDTTAKEVVIQAIREFAVTATPDQYSLCEVSVTPEGVIKQRRLPDQLSKLADRIQLSGRYYLKNNMETETLCSDEDAQELLRESQISLLQLSTVEVATQLSMRNFELFRNIEPTEYIDDLFKLRSKTSCANLKRFEEVINQETFWVASEILRETNQLKRMKIIKHFIKIALHCRECKNFNSMFAIISGLNLAPVARLRTTWEKLPNKYEKLFQDLQDLFDPSRNMAKYRNVLNSQNLQPPIIPLFPVIKKDLTFLHEGNDSKVDGLVNFEKLRMIAKEIRHVGRMASVNMDPALMFRTRKKKWRSLGSLSQGSTNATVLDVAQTGGHKKRVRRSSFLNAKKLYEDAQMARKVKQYLSNLELEMDEESLQTLSLQCEPATNTLPKNPGDKKPVKSETSPVAPRAGSQQKAQSLPQPQQQPPPAHKINQGLQVPAVSLYPSRKKVPVKDLPPFGINSPQALKKILSLSEEGSLERHKKQAEDTISNASSQLSSPPTSPQSSPRKGYTLAPSGTVDNFSDSGHSEISSRSSIVSNSSFDSVPVSLHDERRQRHSVSIVETNLGMGRMERRTMIEPDQYSLGSYAPMSEGRGLYATATVISSPSTEELSQDQGDRASLDAADSGRGSWTSCSSGSHDNIQTIQHQRSWETLPFGHTHFDYSGDPAGLWASSSHMDQIMFSDHSTKYNRQNQSRESLEQAQSRASWASSTGYWGEDSEGDTGTIKRRGGKDVSIEAESSSLTSVTTEETKPVPMPAHIAVASSTTKGLIARKEGRYREPPPTPPGYIGIPITDFPEGHSHPARKPPDYNVALQRSRMVARSSDTAGPSSVQQPHGHPTSSRPVNKPQWHKPNESDPRLAPYQSQGFSTEEDEDEQVSAV | heterologous expression of GRF4 in HEK-293T cells led to a weak activation of endogenous Ras, which was greatly enhanced following stimulation of cells with ... 8-Br-cAMP | ˜2.9 fold activation in 30 min. | –
2 | Isolated CDC25 domain of GRF4 (protein) SLLQLSTVEVATQLSMRNFELFRNIEPTEYIDDLFKLRSKTSCANLKRFEEVINQETFWVASEILRETNQLKRMKIIKHFIKIALHCRECKNFNSMFAIISGLNLAPVARLRTTWEKLPNKYEKLFQDLQDLFDPSRNMAKYRNVLNSQNLQPPIIPLFPVIKKDLTFLHEGNDSKVDGLVNFEKLRMIAKEIRHVGRMASVNMDPALMFRTRKKKWRSLGSLSQGSTNATVLDVAQTGGHKKRVRRSSFLNAKKLYEDAQMARKVKQYLSNLELEMDEESLQTLSLQCEPATNT | – | – | we were unable to demonstrate significant activation of Ras by the isolated CDC25 domain of GRF4
